From US20220010021A1 (Sanofi, published 2022)

T1: human beta-Klotho (KLB) (human, UniProt Q86Z14 53-997)
T1 construct: Bought soluble protein; also called human KLB; ß-Klotho
T1 sequence (looked up): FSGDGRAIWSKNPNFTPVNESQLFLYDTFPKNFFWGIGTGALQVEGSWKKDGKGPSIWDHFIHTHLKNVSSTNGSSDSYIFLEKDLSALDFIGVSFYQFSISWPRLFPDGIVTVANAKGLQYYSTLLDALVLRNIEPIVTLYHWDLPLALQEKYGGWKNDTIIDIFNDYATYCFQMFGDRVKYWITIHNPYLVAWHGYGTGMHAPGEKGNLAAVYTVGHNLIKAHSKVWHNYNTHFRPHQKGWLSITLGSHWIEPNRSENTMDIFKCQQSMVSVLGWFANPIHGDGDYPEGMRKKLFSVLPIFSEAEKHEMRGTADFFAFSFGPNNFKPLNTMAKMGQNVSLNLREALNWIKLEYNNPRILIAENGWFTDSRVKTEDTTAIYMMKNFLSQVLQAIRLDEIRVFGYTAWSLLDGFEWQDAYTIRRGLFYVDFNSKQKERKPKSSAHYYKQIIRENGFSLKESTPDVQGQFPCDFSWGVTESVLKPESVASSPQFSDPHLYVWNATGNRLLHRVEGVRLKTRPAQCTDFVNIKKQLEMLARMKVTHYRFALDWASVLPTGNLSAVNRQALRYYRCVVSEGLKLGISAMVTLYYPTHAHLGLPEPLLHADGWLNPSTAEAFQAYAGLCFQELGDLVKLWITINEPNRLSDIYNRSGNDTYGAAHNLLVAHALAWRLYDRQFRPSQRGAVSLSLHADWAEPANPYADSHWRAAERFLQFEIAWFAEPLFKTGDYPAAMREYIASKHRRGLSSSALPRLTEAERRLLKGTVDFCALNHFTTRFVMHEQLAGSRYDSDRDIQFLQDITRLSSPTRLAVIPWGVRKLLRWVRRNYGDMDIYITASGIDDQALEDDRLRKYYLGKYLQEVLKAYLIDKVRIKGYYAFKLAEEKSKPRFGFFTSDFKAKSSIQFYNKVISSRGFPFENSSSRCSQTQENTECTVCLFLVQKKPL

B1: 16H7 light chain variant G28T (antibody, human IgG4 S228P, lambda, V domains shown)
VH: not shown
VL: SYVLTQPPSVSVAPGQTARITCGGNNITSESVHWYQQKPGQAPVLVVYDDSDRPSGIPERFSGSNSGNTATLTISRVEAGDEADYYCQVWDGNSDHVVFGGGTKLTVLG
B2: 16H7 light chain variant S29C (antibody, V domains shown)
VH: not shown
VL: SYVLTQPPSVSVAPGQTARITCGGNNIGCESVHWYQQKPGQAPVLVVYDDSDRPSGIPERFSGSNSGNTATLTISRVEAGDEADYYCQVWDGNSDHVVFGGGTKLTVLG
notes: copies: 2 + 2
B3: 16H7 light chain variant I27A (antibody, human IgG4 S228P, lambda, V domains shown)
VH: not shown
VL: SYVLTQPPSVSVAPGQTARITCGGNNAGSESVHWYQQKPGQAPVLVVYDDSDRPSGIPERFSGSNSGNTATLTISRVEAGDEADYYCQVWDGNSDHVVFGGGTKLTVLG
B4: 16H7 light chain variant I27H (antibody, V domains shown)
VH: not shown
VL: SYVLTQPPSVSVAPGQTARITCGGNNHGSESVHWYQQKPGQAPVLVVYDDSDRPSGIPERFSGSNSGNTATLTISRVEAGDEADYYCQVWDGNSDHVVFGGGTKLTVLG
notes: copies: 2 + 2
B5: 16H7 light chain variant S29E (antibody, human IgG4 S228P, lambda, V domains shown)
VH: not shown
VL: SYVLTQPPSVSVAPGQTARITCGGNNIGEESVHWYQQKPGQAPVLVVYDDSDRPSGIPERFSGSNSGNTATLTISRVEAGDEADYYCQVWDGNSDHVVFGGGTKLTVLG
B6: 16H7 light chain variant I27V (antibody, V domains shown)
VH: not shown
VL: SYVLTQPPSVSVAPGQTARITCGGNNVGSESVHWYQQKPGQAPVLVVYDDSDRPSGIPERFSGSNSGNTATLTISRVEAGDEADYYCQVWDGNSDHVVFGGGTKLTVLG
notes: copies: 2 + 2
B7: 16H7 light chain variant G28Y (antibody, human IgG4 S228P, lambda, V domains shown)
VH: not shown
VL: SYVLTQPPSVSVAPGQTARITCGGNNIYSESVHWYQQKPGQAPVLVVYDDSDRPSGIPERFSGSNSGNTATLTISRVEAGDEADYYCQVWDGNSDHVVFGGGTKLTVLG
B8: 16H7 light chain variant I27Y (antibody, human IgG4 S228P, lambda, V domains shown)
VH: not shown
VL: SYVLTQPPSVSVAPGQTARITCGGNNYGSESVHWYQQKPGQAPVLVVYDDSDRPSGIPERFSGSNSGNTATLTISRVEAGDEADYYCQVWDGNSDHVVFGGGTKLTVLG
B9: 16H7 light chain variant I27P (antibody, human IgG4 S228P, lambda, V domains shown)
VH: not shown
VL: SYVLTQPPSVSVAPGQTARITCGGNNPGSESVHWYQQKPGQAPVLVVYDDSDRPSGIPERFSGSNSGNTATLTISRVEAGDEADYYCQVWDGNSDHVVFGGGTKLTVLG
B10: 16H7 light chain variant S29F (antibody, V domains shown)
VH: not shown
VL: SYVLTQPPSVSVAPGQTARITCGGNNIGFESVHWYQQKPGQAPVLVVYDDSDRPSGIPERFSGSNSGNTATLTISRVEAGDEADYYCQVWDGNSDHVVFGGGTKLTVLG
notes: copies: 2 + 2
B11: 16H7 light chain variant I27M (antibody, human IgG4 S228P, lambda, V domains shown)
VH: not shown
VL: SYVLTQPPSVSVAPGQTARITCGGNNMGSESVHWYQQKPGQAPVLVVYDDSDRPSGIPERFSGSNSGNTATLTISRVEAGDEADYYCQVWDGNSDHVVFGGGTKLTVLG
B12: 16H7 light chain variant I27C (antibody, human IgG4 S228P, lambda, V domains shown)
VH: not shown
VL: SYVLTQPPSVSVAPGQTARITCGGNNCGSESVHWYQQKPGQAPVLVVYDDSDRPSGIPERFSGSNSGNTATLTISRVEAGDEADYYCQVWDGNSDHVVFGGGTKLTVLG
B13: 16H7 light chain variant I27N (antibody, V domains shown)
VH: not shown
VL: SYVLTQPPSVSVAPGQTARITCGGNNNGSESVHWYQQKPGQAPVLVVYDDSDRPSGIPERFSGSNSGNTATLTISRVEAGDEADYYCQVWDGNSDHVVFGGGTKLTVLG
notes: copies: 2 + 2
B14: 16H7 light chain variant G28W (antibody, human IgG4 S228P, lambda, V domains shown)
VH: not shown
VL: SYVLTQPPSVSVAPGQTARITCGGNNIWSESVHWYQQKPGQAPVLVVYDDSDRPSGIPERFSGSNSGNTATLTISRVEAGDEADYYCQVWDGNSDHVVFGGGTKLTVLG
B15: 16H7 light chain variant S29D (antibody, human IgG4 S228P, lambda, V domains shown)
VH: not shown
VL: SYVLTQPPSVSVAPGQTARITCGGNNIGDESVHWYQQKPGQAPVLVVYDDSDRPSGIPERFSGSNSGNTATLTISRVEAGDEADYYCQVWDGNSDHVVFGGGTKLTVLG
B16: 16H7 light chain variant I27Q (antibody, human IgG4 S228P, lambda, V domains shown)
VH: not shown
VL: SYVLTQPPSVSVAPGQTARITCGGNNQGSESVHWYQQKPGQAPVLVVYDDSDRPSGIPERFSGSNSGNTATLTISRVEAGDEADYYCQVWDGNSDHVVFGGGTKLTVLG
B17: 16H7 light chain variant S29A (antibody, V domains shown)
VH: not shown
VL: SYVLTQPPSVSVAPGQTARITCGGNNIGAESVHWYQQKPGQAPVLVVYDDSDRPSGIPERFSGSNSGNTATLTISRVEAGDEADYYCQVWDGNSDHVVFGGGTKLTVLG
notes: copies: 2 + 2
B18: 16H7 light chain variant I27T (antibody, V domains shown)
VH: not shown
VL: SYVLTQPPSVSVAPGQTARITCGGNNTGSESVHWYQQKPGQAPVLVVYDDSDRPSGIPERFSGSNSGNTATLTISRVEAGDEADYYCQVWDGNSDHVVFGGGTKLTVLG
notes: copies: 2 + 2
B19: 16H7 light chain variant I27W (antibody, human IgG4 S228P, lambda, V domains shown)
VH: not shown
VL: SYVLTQPPSVSVAPGQTARITCGGNNWGSESVHWYQQKPGQAPVLVVYDDSDRPSGIPERFSGSNSGNTATLTISRVEAGDEADYYCQVWDGNSDHVVFGGGTKLTVLG
B20: 16H7 light chain variant I27R (antibody, V domains shown)
VH: not shown
VL: SYVLTQPPSVSVAPGQTARITCGGNNRGSESVHWYQQKPGQAPVLVVYDDSDRPSGIPERFSGSNSGNTATLTISRVEAGDEADYYCQVWDGNSDHVVFGGGTKLTVLG
notes: copies: 2 + 2
B21: 16H7 light chain variant I27F (antibody, V domains shown)
VH: not shown
VL: SYVLTQPPSVSVAPGQTARITCGGNNFGSESVHWYQQKPGQAPVLVVYDDSDRPSGIPERFSGSNSGNTATLTISRVEAGDEADYYCQVWDGNSDHVVFGGGTKLTVLG
notes: copies: 2 + 2

What was measured:
[1] = molecular target: cell surface receptor composed of FGFR1c and co-receptor beta-Klotho (KLB) (human, UniProt P11362 22-822; Q86Z14 1-1044); experiment: cell-based or functional assay; on Mean E max, Luciferase reporter gene assay: reference of the scale not given here
[2] = molecular target: T1, human beta-Klotho (KLB); experiment: BLI off-rate screen, supernatant;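 further: expression supernatants tested at 25 µg/mL, dissociation followed for 1800 s in D-PBS with 0.1% BSA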

cell surface receptor composed of FGFR1c and co-receptor beta-Klotho (KLB), sequence (P11362 22-822, chain 1 of 2): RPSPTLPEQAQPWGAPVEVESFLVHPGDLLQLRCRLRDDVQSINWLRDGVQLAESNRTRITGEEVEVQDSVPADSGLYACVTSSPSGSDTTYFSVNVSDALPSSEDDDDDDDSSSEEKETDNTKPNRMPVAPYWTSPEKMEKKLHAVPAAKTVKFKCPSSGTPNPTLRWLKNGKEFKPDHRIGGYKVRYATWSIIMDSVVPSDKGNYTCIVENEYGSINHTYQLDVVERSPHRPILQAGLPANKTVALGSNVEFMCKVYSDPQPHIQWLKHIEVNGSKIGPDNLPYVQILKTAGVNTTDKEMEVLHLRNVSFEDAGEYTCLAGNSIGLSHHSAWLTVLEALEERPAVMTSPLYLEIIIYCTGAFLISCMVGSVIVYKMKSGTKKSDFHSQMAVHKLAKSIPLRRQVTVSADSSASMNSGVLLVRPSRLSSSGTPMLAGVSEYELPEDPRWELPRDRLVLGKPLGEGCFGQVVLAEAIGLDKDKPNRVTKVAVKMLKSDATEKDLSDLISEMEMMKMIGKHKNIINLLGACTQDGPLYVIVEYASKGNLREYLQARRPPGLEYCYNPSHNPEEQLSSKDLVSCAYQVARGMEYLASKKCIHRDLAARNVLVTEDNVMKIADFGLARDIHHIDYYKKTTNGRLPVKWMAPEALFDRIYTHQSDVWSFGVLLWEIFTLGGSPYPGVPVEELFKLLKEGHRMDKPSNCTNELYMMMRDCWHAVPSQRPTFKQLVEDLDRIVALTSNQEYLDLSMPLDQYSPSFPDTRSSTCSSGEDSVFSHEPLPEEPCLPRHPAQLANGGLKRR
cell surface receptor composed of FGFR1c and co-receptor beta-Klotho (KLB), sequence (Q86Z14 whole entry, chain 2 of 2): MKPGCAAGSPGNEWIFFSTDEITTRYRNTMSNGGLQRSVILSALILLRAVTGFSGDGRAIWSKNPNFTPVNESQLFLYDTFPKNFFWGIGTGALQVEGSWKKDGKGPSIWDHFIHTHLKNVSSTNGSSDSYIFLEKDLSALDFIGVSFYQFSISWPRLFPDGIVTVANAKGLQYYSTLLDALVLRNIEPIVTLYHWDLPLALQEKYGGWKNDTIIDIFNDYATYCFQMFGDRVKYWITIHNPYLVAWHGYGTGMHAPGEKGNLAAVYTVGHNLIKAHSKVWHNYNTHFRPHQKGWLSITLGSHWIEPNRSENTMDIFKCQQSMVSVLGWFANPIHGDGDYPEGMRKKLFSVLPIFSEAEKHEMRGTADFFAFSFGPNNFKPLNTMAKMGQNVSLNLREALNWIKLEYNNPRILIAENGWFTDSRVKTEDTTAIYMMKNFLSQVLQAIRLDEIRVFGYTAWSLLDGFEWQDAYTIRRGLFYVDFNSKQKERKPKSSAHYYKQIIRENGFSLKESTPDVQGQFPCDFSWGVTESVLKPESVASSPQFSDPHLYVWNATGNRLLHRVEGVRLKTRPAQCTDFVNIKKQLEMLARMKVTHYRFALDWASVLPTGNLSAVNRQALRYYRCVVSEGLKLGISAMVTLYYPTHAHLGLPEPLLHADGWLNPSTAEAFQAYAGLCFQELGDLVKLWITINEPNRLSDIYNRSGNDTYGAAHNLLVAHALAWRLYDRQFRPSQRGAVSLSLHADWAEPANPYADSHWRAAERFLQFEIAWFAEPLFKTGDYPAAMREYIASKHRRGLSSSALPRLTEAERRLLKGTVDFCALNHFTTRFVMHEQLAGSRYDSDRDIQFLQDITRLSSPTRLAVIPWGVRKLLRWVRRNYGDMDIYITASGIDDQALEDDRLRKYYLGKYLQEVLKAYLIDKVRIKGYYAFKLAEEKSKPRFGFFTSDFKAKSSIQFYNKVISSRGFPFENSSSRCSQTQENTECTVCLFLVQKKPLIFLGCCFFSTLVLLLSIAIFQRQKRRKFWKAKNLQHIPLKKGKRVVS

Binder | Mean E max, Luciferase reporter gene assay [1] | Mean EC50, Luciferase reporter gene assay [1] | koff [2]
B1 | 110% | 0.187 nM | 1.5e-06 s⁻¹
B2 | 108% | 0.172 nM | 5e-05 s⁻¹
B3 | 107% | 0.111 nM | 5.3e-05 s⁻¹
B4 | 100% | 0.098 nM | 3.3e-05 s⁻¹
B5 | 114% | 0.102 nM | 2.3e-05 s⁻¹
B6 | 104% | 0.136 nM | 3.3e-05 s⁻¹
B7 | 109% | 0.131 nM | 5.3e-05 s⁻¹
B8 | 96% | 0.116 nM | 4.2e-05 s⁻¹
B9 | 107% | 0.145 nM | 3.5e-06 s⁻¹
B10 | 116% | 0.19 nM | 1.9e-05 s⁻¹
B11 | 97% | 0.087 nM | 6e-05 s⁻¹
B12 | 106% | 0.16 nM | 3.8e-05 s⁻¹
B13 | 96% | 0.162 nM | 4.5e-05 s⁻¹
B14 | 96% | 0.142 nM | 3.7e-05 s⁻¹
B15 | 109% | 0.136 nM | 4.5e-05 s⁻¹
B16 | 103% | 0.144 nM | 6.1e-05 s⁻¹
B17 | 100% | 0.153 nM | 1e-05 s⁻¹
B18 | 97% | 0.152 nM | 3.3e-05 s⁻¹
B19 | 104% | 0.156 nM | 6.5e-05 s⁻¹
B20 | 105% | 0.131 nM | 2.2e-05 s⁻¹
B21 | 104% | 0.118 nM | 2e-05 s⁻¹
